From patent publication US20220064321A1 come the findings set out here.

Assay [1] has as its target CD16a on effector cells NK92MI-CD16a (UniProt P08637). The assay is described as follows: cell-based or functional assay.
Assay [2] addresses FcγRIIIa(V158) (Sino Biological Inc, 10389-H08C1) (UniProt P08637). The assay is described as follows: binding ELISA; His-tagged FcγRIIIa captured by anti-His antibody, IgG pre-complexed with goat F(ab')2 anti-human-κ, HRP anti-human F(ab')2 detection. On the technique in general: ELISA stands for enzyme-linked immunosorbent assay.

As a reminder, the EC50 is the concentration giving half of the maximal effect.

Sequence of CD16a on effector cells NK92MI-CD16a (P08637 17-254 limits assumed): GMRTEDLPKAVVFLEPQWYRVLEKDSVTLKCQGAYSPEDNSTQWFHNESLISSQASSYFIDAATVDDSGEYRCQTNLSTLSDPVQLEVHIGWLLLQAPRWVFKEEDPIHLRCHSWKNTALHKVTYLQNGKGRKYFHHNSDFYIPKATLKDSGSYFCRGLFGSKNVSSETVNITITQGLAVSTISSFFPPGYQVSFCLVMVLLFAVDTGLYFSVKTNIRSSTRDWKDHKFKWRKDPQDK
Sequence of FcγRIIIa(V158) (Sino Biological Inc, 10389-H08C1) (P08637 17-208 F176V limits assumed): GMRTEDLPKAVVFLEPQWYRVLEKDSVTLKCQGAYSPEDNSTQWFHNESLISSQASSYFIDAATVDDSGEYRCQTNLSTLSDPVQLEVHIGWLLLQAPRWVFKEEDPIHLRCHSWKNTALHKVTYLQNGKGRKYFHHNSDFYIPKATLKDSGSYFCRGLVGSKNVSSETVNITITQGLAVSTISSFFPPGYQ

For the substance RITUXAN® (rituximab) (antibody), in assay [1], the ADCC Target cell: Daudi, EC50 was 4.53 ng/mL and the ADCC Target cell: Raji, EC50 was found to be 0.345 ng/mL. This substance yielded an EC50 in assay [2] of 194 ng/mL.
